Among the data in paper PMC5895635 are β-galactosidase activity values, retold here.

Assay in all cases: two-hybrid; β-galactosidase activity in yeast strain AH109 with the Yeast β-galactosidase Assay Kit (Thermo Fisher Scientific); pGBKT7 bait and pGADT7 prey; three biological replicates
Test [1] deals with MnMADS33 (mulberry 'Jinqiang 63' (JQ63) used for vector construction; gene identified in Morus notabilis).
Test [2] addresses MnMADS50 (mulberry 'Jinqiang 63' (JQ63) used for vector construction; gene identified in Morus notabilis).
In test [3] the target is MnMADS1 (mulberry 'Jinqiang 63' (JQ63) used for vector construction; gene identified in Morus notabilis).
For a further test, the target named is pGBKT7-53.

With MnMADS1 (natural protein), the β-galactosidase activity in test [1] turned out to be 15.1 units; in test [2], 16.3 units.
In test [3], MnMADS33 (natural protein) returned a β-galactosidase activity of 17.5 units.
Same read-out and setting: in the case of MnMADS50 (natural protein) it was 15.3 units.
In the case of pGADT7-T, in the test with pGBKT7-53, the β-galactosidase activity amounted to 15.7 units.
